These are literature values, as cited in PMC2920229.

pKd: −log10 of the molar value.

For this data set, the target named is HIV-1 protease (Human immunodeficiency virus 1) (UniProt O93215).

Take HIV-1 protease (from UniProt O93215): the pKd (as a rule, the Kd on a negative log10 scale, so that one unit is a factor of ten) was above 8.30.
